Assay [1] has as its target T1, Human CD93 on cells (human CD93 expressing CHO cells; HUVEC, U937 and KG1a cells) (human, UniProt Q9NPY3 22-652).
T1 construct: whole, on cells; also called hCD93 expressing CHO cells; hCD93 CHO cells
T1 sequence (looked up): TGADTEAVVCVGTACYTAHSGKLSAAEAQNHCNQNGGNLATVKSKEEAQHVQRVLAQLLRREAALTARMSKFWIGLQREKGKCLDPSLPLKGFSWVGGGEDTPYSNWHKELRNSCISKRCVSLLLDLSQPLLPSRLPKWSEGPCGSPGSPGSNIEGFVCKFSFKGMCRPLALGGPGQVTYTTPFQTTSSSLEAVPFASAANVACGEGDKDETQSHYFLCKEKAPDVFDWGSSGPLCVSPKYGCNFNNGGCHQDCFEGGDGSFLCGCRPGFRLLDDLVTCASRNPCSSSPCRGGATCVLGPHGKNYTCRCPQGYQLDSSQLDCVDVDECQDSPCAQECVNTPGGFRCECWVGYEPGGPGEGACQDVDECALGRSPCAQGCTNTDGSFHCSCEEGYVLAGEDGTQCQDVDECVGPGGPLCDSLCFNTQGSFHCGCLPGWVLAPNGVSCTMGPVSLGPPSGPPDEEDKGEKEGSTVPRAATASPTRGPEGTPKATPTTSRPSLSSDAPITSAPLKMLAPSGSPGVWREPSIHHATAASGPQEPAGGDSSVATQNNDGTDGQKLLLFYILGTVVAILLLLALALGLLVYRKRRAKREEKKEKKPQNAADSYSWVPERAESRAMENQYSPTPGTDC
Briefly: flow cytometry titration, KG1a cells; antibody stored 4 weeks at 40 C. Here is the method: (§1) KG1a cells were detached by incubation with TrypLE reagents (Thermo Fisher), which preserves the integrity of CD93 on the cell surface. Then the cells were incubated with serial diluted anti-CD93 antibodies for 30 minutes at 4° C. After washing by FACS buffer, the cells were incubated with Alexa Fluor 647 conjugated anti-human IgG (Jackson ImmunoResearch) for 30 minutes in 4° C. After washing by FACS buffer twice, the samples were acquired in NovoCyte Flow Cytometer and analyzed by NovoExpress software.
On the technique in general: In flow cytometry, cells or beads pass a laser one at a time.

The target in assay [2] is T2, Human CD93 recombinant protein (Sino Biological Inc, Catalog #12589-H08H) (human, UniProt Q9NPY3 22-580).
T2 construct: Biotinylated (EZ-LINK NHS-PEG4 biotin) in the BLI assays; also called hCD93; His-tagged human CD93
T2 sequence (looked up): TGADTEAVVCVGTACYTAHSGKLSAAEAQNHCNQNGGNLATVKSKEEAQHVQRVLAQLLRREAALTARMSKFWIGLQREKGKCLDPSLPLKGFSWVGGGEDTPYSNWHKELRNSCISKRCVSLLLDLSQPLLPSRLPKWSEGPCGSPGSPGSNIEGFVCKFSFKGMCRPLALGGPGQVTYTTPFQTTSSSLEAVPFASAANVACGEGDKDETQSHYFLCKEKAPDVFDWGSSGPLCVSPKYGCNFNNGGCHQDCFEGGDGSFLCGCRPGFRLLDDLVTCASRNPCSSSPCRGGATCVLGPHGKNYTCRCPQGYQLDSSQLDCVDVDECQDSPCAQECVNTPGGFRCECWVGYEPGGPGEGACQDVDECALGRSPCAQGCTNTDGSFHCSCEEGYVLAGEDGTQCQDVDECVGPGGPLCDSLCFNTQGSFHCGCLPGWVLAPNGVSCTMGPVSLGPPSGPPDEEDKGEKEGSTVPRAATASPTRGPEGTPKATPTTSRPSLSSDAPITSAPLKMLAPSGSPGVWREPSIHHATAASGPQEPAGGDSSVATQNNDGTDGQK
Briefly: summary table, column Octet (hCD93); 2 weeks at 40 C. Here is the method:
(§2) The binding affinity of anti-CD93 antibodies was determined with bio-layer interferometry using Octet QKe (Fortebio). […] Human CD93 recombinant protein (Sino Biological Inc, Catalog #12589-H08H) was biotinylated using EZ-LINK NHS-PEG4 biotin (Thermo Fisher Scientific). Streptavidin biosensors (Fortebio) were used to load biotinylated CD93 protein (300 seconds in 5 μg/ml). Baseline was stabilized for 60 seconds in 1×kinetics buffer (Fortebio) before anti-CD93 antibodies, at a serial dilution, were allowed to associate for 300 seconds with captured protein. Then the sensors were dissociated in 1× kinetics buffer for 600 seconds. […] (FIG. 41).
as §2, with “1× kinetics” for “1×kinetics”, “42).” for “41).”
On the technique in general: BLI is a label-free optical method that tracks binding on a fibre tip over time.

The target of assay [3] is T2, Human CD93 recombinant protein (Sino …). Briefly: ELISA, His-tagged human CD93 coated, OD450. Here is the method: (§3) His-tagged human CD93 was coated onto a 96 well plate at 1 μg/mL in 1×PBS overnight at 4° C. The plate was washed with ELISA wash buffer (Boston BioProduct, Inc.) and the wells were blocked with ELISA blocking buffer for 1 hour at 37° C. […] The plate was washed with ELISA wash Buffer. HRP-conjugated anti-human Fc antibody was incubated for 1 hour at 37° C. The plate was washed with ELISA wash Buffer. HRP substrate was added for indirect detection of the antibodies binding to CD93.
For orientation: In an ELISA, binding on a coated surface is turned into a signal by an enzyme label.

Assay [4] addresses T1, Human CD93 on cells (human CD93 …). Briefly: summary table, column FACS (KG1a cells); 4 weeks at 40 C. On the procedure: as §1, §1
For assay [5], the target named is T2, Human CD93 recombinant protein (Sino …). Briefly: summary table, column Octet (hCD93); 4 weeks at 40 C. On the procedure:
as §2
as §2, with “1× kinetics” for “1×kinetics”, “42).” for “41).”

The target is the same in assay [6]. Briefly: summary table, column ELISA (hCD93); 2 weeks at 40 C. Here is the method:
as §3, §3

Assay [7] concerns the target T1, Human CD93 on cells (human CD93 …). The experiment in a line: summary table, column FACS (KG1a cells); 2 weeks at 40 C. Here is the method:
as §1, §1

One may read the EC50 as the midpoint of the concentration-response curve. For orientation: Kd means the concentration at which binding is half-saturated.

B1: h7F3 (humanized 7F3, VH3+VL3) (antibody, human IgG1, V domains shown)
VH: QVQLVQSGAEVKKPGASVKVSCKASGYTFTDYEMHWVRQAPGQGLEWMGGIDPETGDTAYNQNFKGRVTMTTDTSTSTAYMELRSLTSDDTAVYYCTNYGNLYYYAMDYWGQGTSVTVSS
VL: EIVLTQSPSSLSASVGDRVTITCRASSSVSSSYLHWYQQKPGKAPKLLIYSTSNLAFGVPSRFSGSGSGTSYTFTISSLQPEDIATYYCQQYSGYPLTFGSGTKLEIK
notes: also called humanized 7F3-hIgG1
Take B1: the EC50 in assay [1] was determined as 0.019 nM; in assay [3], 0.0427 nM; in assay [4], 0.019 nM; in assay [6] it was 0.0413 nM; in assay [7], 0.021 nM. For the same molecule, the Kd in assay [2] turned out to be 0.495 nM; in assay [5], 0.487 nM.

B2: h16E4 (humanized 16E4, VH4+VL6) (antibody, V domains shown)
VH: QVQLVQSGAEVKKPGASVKVSCKASGYTFTSYWMHWVRQAPGQGLEWMGEIDPSASYTYYNQKFKGRVTMTRDKSSSTVYMELSSLTSEDSAVYYCARSVYYGNKYFDVWGAGTTVTVSS
VL: DIQMTQSPSTLSASVGDRVTITCKASQSVDYAGDSYMNWYQQKPGKAPKLLIYAASNLESGVPSRFSGSGSGTEFTLTISSLQPDDFATYYCQQTNEDPRTFGGGTKLEIK
notes: Detected with anti-human IgG, so a human Fc
B2: the EC50 in assay [1] is 0.115 nM; in assay [3], 0.033 nM; in assay [4], 0.115 nM; in assay [6], 0.049 nM; in assay [7], 0.113 nM. The figures for the Kd in assay [2] and in assay [5] were 0.0204 nM and 0.112 nM, respectively.

The values above are taken from patent publication US20230365705A1 (DYNAMICURE BIOTECHNOLOGY, published 2023).
